Assay results as given in patent publication US20150329644A1 (BRIGHAM AND WOMEN S HOSPITAL, published 2015).
Ends that are not written are not given here.

T1: Recombinant 6x his tagged full-length LSD2 (human, UniProt Q8NB78 1-822)
T1 construct: range 1-822; Expressed in and purified from Sf9 insect cells; also called His-LSD2; full-length His-LSD2
T1 sequence: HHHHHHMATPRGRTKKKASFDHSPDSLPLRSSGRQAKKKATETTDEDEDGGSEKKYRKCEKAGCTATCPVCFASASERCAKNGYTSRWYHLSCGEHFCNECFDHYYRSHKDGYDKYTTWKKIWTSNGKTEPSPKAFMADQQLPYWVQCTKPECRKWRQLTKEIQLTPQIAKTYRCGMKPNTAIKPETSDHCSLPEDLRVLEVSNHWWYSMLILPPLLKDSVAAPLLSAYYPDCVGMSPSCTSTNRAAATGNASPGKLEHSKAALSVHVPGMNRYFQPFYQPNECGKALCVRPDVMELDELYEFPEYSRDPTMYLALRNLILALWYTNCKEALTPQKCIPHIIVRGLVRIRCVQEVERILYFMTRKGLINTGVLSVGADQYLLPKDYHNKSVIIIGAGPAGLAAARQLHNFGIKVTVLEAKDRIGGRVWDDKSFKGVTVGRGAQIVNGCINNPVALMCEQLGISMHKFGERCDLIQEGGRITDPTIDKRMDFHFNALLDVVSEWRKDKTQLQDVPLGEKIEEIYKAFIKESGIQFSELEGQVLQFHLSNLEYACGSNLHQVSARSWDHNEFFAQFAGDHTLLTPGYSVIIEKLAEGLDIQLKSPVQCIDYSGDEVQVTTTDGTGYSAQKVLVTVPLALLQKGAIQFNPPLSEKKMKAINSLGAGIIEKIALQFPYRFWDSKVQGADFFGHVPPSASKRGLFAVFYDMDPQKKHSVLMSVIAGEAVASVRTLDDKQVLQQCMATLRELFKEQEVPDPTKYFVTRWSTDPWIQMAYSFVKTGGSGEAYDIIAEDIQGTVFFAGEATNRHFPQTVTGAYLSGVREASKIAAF

T2: Human LSD2 (residues 51-822) (human, UniProt Q8NB78 51-822)
T2 construct: range 51-822; Expressed in Sf9 cells with a His6 tag removed by 3C protease; used for ITC; also called KDM1b; AOF1
T2 sequence (looked up): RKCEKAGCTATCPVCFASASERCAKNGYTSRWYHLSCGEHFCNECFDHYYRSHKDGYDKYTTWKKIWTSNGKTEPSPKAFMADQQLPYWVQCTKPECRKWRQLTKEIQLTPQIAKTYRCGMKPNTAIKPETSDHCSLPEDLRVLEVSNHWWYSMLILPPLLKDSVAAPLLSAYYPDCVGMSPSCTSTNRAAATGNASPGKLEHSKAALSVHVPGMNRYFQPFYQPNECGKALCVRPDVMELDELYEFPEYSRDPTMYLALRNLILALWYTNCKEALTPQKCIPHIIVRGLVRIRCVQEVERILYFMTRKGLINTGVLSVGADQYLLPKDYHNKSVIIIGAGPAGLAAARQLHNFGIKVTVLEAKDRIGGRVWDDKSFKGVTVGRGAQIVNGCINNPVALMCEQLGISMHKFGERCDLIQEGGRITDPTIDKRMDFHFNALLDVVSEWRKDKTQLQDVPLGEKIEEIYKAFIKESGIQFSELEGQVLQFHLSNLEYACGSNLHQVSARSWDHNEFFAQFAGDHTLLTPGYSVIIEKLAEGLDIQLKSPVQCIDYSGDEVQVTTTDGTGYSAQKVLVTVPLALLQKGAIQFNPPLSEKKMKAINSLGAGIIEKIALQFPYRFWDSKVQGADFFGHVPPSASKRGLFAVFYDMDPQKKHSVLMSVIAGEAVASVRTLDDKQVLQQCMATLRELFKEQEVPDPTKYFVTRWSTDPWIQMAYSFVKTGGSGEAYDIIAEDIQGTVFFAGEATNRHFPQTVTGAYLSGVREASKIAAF

T3: Endogenous LSD2 (human cells) (human, UniProt Q8NB78 1-822, limits assumed)
T3 construct: also called KDM1b; AOF1
T3 sequence (looked up): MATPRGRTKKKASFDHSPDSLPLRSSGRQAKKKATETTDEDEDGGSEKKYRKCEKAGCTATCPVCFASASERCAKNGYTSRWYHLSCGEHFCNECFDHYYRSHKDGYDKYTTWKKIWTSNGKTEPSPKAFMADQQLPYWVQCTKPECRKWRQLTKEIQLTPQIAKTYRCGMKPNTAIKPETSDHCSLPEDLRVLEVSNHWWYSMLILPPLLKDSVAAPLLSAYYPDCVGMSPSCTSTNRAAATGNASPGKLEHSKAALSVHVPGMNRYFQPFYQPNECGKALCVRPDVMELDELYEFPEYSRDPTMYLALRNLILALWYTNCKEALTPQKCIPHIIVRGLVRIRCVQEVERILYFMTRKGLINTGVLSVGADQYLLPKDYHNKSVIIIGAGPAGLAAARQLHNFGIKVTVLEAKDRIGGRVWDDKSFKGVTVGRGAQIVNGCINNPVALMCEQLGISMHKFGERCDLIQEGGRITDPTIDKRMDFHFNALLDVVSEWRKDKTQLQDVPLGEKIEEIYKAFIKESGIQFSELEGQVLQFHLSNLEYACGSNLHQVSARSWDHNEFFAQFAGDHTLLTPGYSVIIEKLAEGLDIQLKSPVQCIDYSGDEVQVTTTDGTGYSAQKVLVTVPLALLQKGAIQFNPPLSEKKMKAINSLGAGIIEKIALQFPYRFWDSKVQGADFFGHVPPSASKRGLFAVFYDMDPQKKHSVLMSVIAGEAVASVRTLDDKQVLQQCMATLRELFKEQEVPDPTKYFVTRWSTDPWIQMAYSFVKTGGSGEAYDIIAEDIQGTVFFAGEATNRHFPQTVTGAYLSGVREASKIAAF

B1: GST-NP.d7 (NPAC residues 152-186, containing the AT hook motif) (other)
chain: SERGSKSPLKRAQEQSPRKRGRPPKDEKDLTIPES
modifications: also: GST tag fusion, tag and linker sequence not given here
notes: not shown: glutathione S-transferase (GST) tag from vector pGEX-4T-1
B2: NPAC.214-225.M6 (F217A) (peptide)
peptide: DPHAHHFLLSQT
notes: Synthetic dodecapeptide; also called NP.M6
B3: NPAC.214-225.M8 (D214A/H216A/F217A) (peptide)
peptide: APAAHHFLLSQT
notes: Synthetic dodecapeptide; also called D214A/H216A/F217A triple mutant peptide
B4: GST-NP.d1 (NPAC residues 1-150, PWWP domain) (other)
chain: MAAVSLRLGDLVWGKLGRYPPWPGKIVNPPKDLKKPRGKKCFFVKFFGTEDHAWIKVEQLKPYHAHKEEMIKINKGKRFQQAVDAVEEFLRRAKGKDQTSSHNSSDDKNRRNSSEERSRPNSGDEKRKLSLSEGKVKKNMGEGKKRVSSG
notes: as for B1
B5: GST-NP.d5 (NPAC residues 262-553, dehydrogenase domain) (other)
chain: SITPTDKKIGFLGLGLMGSGIVSNLLKMGHTVTVWNRTAEKCDLFIQEGARLGRTPAEVVSTCDITFACVSDPKAAKDLVLGPSGVLQGIRPGKCYVDMSTVDADTVTELAQVIVSRGGRFLEAPVSGNQQLSNDGMLVILAAGDRGLYEDCSSCFQAMGKTSFFLGEVGNAAKMMLIVNMVQGSFMATIAEGLTLAHVTGQSQQTLLDILNQGQLASIFLDQKCQNILQGNFKPDFYLKYIQKDLRLAIALGDAVNHPTPMAAAANEVYKRAKALDQSDNDMSAVYRAYIH
notes: as for B1
B6: FLAG-HA tagged NPAC (N-terminal FLAG-HA, stably expressed in HeLa, tandem affinity purified) (other)
chain: MAAVSLRLGDLVWGKLGRYPPWPGKIVNPPKDLKKPRGKKCFFVKFFGTEDHAWIKVEQLKPYHAHKEEMIKINKGKRFQQAVDAVEEFLRRAKGKDQTSSHNSSDDKNRRNSSEERSRPNSGDEKRKLSLSEGKVKKNMGEGKKRVSSGSSERGSKSPLKRAQEQSPRKRGRPPKDEKDLTIPESSTVKGMMAGPMAAFKWQPTASEPVKDADPHFHHFLLSQTEKPAVCYQAITKKLKICEEETGSTSIQAADSTAVNGSITPTDKKIGFLGLGLMGSGIVSNLLKMGHTVTVWNRTAEKCDLFIQEGARLGRTPAEVVSTCDITFACVSDPKAAKDLVLGPSGVLQGIRPGKCYVDMSTVDADTVTELAQVIVSRGGRFLEAPVSGNQQLSNDGMLVILAAGDRGLYEDCSSCFQAMGKTSFFLGEVGNAAKMMLIVNMVQGSFMATIAEGLTLAHVTGQSQQTLLDILNQGQLASIFLDQKCQNILQGNFKPDFYLKYIQKDLRLAIALGDAVNHPTPMAAAANEVYKRAKALDQSDNDMSAVYRAYIH
notes: Bait of the purified NPAC complex; also called FLAG:HA-NPAC; NPAC complex; not shown: N-terminal FLAG-HA tag from pOZ-N vector
B7: Endogenous NPAC (human cells) (other)
chain: B6 chain
notes: Endogenous protein of HeLa cells, detected by immunoblot in purified complexes; also called GLYR1; NP60
B8: GST-NP.d9 (NP.d3, NPAC residues 152-252, with deletion of amino acids 214-222) (other, not shown: a dimerising Fc or GST; small tags and cut ends)
chain: SERGSKSPLKRAQEQSPRKRGRPPKDEKDLTIPESSTVKGMMAGPMAAFKWQPTASEPVKDASQTEKPAVCYQAITKKLKICEEETGSTSIQ
notes: The flanking ranges are derived from that
B9: GST-NP.d6 (NPAC with deletion of the linker region, residues 152-252) (other, not shown: a dimerising Fc or GST; small tags and cut ends)
chain: MAAVSLRLGDLVWGKLGRYPPWPGKIVNPPKDLKKPRGKKCFFVKFFGTEDHAWIKVEQLKPYHAHKEEMIKINKGKRFQQAVDAVEEFLRRAKGKDQTSSHNSSDDKNRRNSSEERSRPNSGDEKRKLSLSEGKVKKNMGEGKKRVSSGSAADSTAVNGSITPTDKKIGFLGLGLMGSGIVSNLLKMGHTVTVWNRTAEKCDLFIQEGARLGRTPAEVVSTCDITFACVSDPKAAKDLVLGPSGVLQGIRPGKCYVDMSTVDADTVTELAQVIVSRGGRFLEAPVSGNQQLSNDGMLVILAAGDRGLYEDCSSCFQAMGKTSFFLGEVGNAAKMMLIVNMVQGSFMATIAEGLTLAHVTGQSQQTLLDILNQGQLASIFLDQKCQNILQGNFKPDFYLKYIQKDLRLAIALGDAVNHPTPMAAAANEVYKRAKALDQSDNDMSAVYRAYIH
notes: as for B8

Key:
[1] = biological target: T1, Recombinant 6x his tagged full-length …; assay: GST pulldown of His-LSD2, SDS-PAGE, Coomassie
Description: FIG. 5B discloses SEQ ID NO: 51. […] FIG. 5D discloses SEQ ID NOS 63 and 76, respectively, in order of appearance. […] See also FIG. 6G.
(§1) After washed 4 times with same buffer at 4° C., glutathione agarose beads were boiled in 1× SDS sample loading buffer. Elute was resolved on a 15% SDS-PAGE gel and stained by coomassie blue.

[2] = biological target: T2, Human LSD2 (residues 51-822); assay: ITC, 15 °C; 3 mM peptide injected into 0.2 mM LSD2 (residues 51-822)
Description: Isothermal Titration Calorimetry (ITC) binding study. […] All proteins and peptides were prepared in 10 mM HEPES, pH 8.0, and 0.1 M NaCl. The data were fitted by software Origin 7.0.

[3] = biological target: T1, Recombinant 6x his tagged full-length …; assay: GST pulldown of purified His-LSD2, SDS-PAGE, Coomassie
Description: DH, dehydrogenase domain; black box, AT-hook motif. FIG. 2A discloses “PWWP” as SEQ ID NO: 63. […] Molecular masses corresponding to mono- and di-methylated H3K4 peptides (residues 1-21) are denoted as me1 and me2, respectively.
as §1

[4] = biological target: Endogenous LSD1 (HeLa cells) (human, UniProt O60341 1-852); assay: tandem affinity purification, immunoblot with anti-LSD1
[5] = biological target: T3, Endogenous LSD2 (human cells); assay: tandem affinity purification from HeLa, immunoblot with anti-LSD2
[6] = biological target: FLAG-HA tagged LSD1 bait protein (stably expressed in HeLa, tandem affinity purified) (human, UniProt O60341 1-852); assay: tandem affinity purification, immunoblot with anti-NPAC

| Binder | Δ H [2] [kcal/mol] | Δ S [2] [cal/mol/deg] | binding result [3] | other results |
| --- | --- | --- | --- | --- |
| B1 | – | – | – | binding result [1]: no binding |
| DPHFHHFLLSQT (also called wild-type NPAC peptide) [NPAC.214-225.WT (wild-type NPAC dodecapeptide, residues 214-225)] | -8.48 | -1.82 | – | Binding ratio [2]: 1.06; Kd [2]: 920 nM |
| B2 | -8.18 | -0.783 | – | Binding ratio [2]: 1.1; Kd [2]: 930 nM |
| B3 | -8.29 | -1.3 | – | – |
| B4 | – | – | no binding | – |
| B5 | – | – | no binding | – |
| B6 | – | – | – | binding result [4]: no binding; binding result [5]: binds |
| B7 | – | – | – | binding result [6]: no binding |
| B8 | – | – | – | binding result [1]: no binding |
| B9 | – | – | no binding | – |
